Assay results taken from publication PMC3684423 (Structure (London, England : 1993), 2012).
Where no end group is shown, it is not given here. [ ]: non-standard residue; d: D form. pT = C[C@@H](OP(=O)(O)O)[C@H](N)C(=O)O

Legend:
[1] = molecular target: Survivin 1-142 (UniProt O15392); assay: peptide-bead pull-down, Coomassie stain
[2] = molecular target: T1, N-terminal Smac/DIABLO(1–15) peptide; assay: ITC
T1 sequence (Q9NR28 22-36, species assumed, looked up): LCVPVVANFKKRCFS

[3] = molecular target: Survivin H80A mutant (human, UniProt O15392 1-142, H80A); assay: ITC
Survivin H80A mutant, sequence (O15392 whole entry H80A): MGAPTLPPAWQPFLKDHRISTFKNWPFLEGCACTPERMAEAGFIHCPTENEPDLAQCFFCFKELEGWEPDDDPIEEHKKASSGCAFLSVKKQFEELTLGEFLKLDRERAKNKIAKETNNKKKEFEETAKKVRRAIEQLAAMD

[4] = molecular target: Survivin E63A mutant (human, UniProt O15392 1-142, E63A); assay: ITC
Survivin E63A mutant, sequence (O15392 whole entry E63A): as the sequence (O15392 whole entry H80A) above, with E63A, A80H counted along it

[5] = molecular target: Survivin W67A mutant (human, UniProt O15392 1-142, W67A); assay: ITC
Survivin W67A mutant, sequence (O15392 whole entry W67A): as the sequence (O15392 whole entry H80A) above, with W67A, A80H counted along it

[6] = molecular target: Survivin L64A mutant (human, UniProt O15392 1-142, L64A); assay: ITC
Survivin L64A mutant, sequence (O15392 whole entry L64A): as the sequence (O15392 whole entry H80A) above, with L64A, A80H counted along it

human Survivin (wild type), sequence (O15392 whole entry): as the sequence (O15392 whole entry H80A) above, with A80H counted along it

histone H3 (from UniProt P68431) H3T3ph peptide beads
binding against the reference ([1]; reference: unmodified H3 peptide beads, sites T3): same

histone H3 (from UniProt P68431) S10ph H3 peptide beads (T3 state not stated)
binding against the reference ([1]; reference: H3 peptide beads without S10ph, sites S10): same

human Survivin (wild type) (from UniProt O15392 1-142) (natural protein)
Kd [2]: 121 µM
dH [2]: -3.48 kcal/mol

Survivin(K62Y/H80W) double mutant (from UniProt O15392 1-142) (natural protein)
Kd [2]: 19.8 µM
dH [2]: -4.44 kcal/mol

AR[pT]KQTARKSTGGKA (peptide, UniProt P68431 2-16, looked up) [H3(1–15)T3ph peptide]
Kd [3]: > 200 µM
Kd [4]: > 200 µM
Kd [5]: > 200 µM
Kd [6]: > 200 µM
